In paper PMC6471494, “Functional Mechanisms Underlying the Antimicrobial Activity of the Oryza sativa Trx-like Protein” (International Journal of Molecular Sciences, 2019):

Target: the molecule itself
Assay: negative-stain transmission electron microscopy; SEC fractions a, b and c of OsTDX on glow-discharged carbon-coated copper grids, 1% uranyl acetate, FEI Tecnai 20 at 200 kV

B1: Oryza sativa Tetratricopeptide Domain-containing thioredoxin (OsTDX) protein (natural protein, UniProt Q6ES52 1-317, looked up)
chain: MATAGASSFEDEIMESDIELEGEAVEPDNDPPQKMGDPSVEVSDEKRDQAQLCKNKGVDAFSEGKLDEAIEHLTEAIVLNPTSAIAYATRAVIFVKSKKPNAAIRDADAALKINPDSAKGYKSRGMAKAMLGKWEEAAQDLRMAAKLDYDEEIGAELKKVEPNVLKIEEHRKKYERLRKERDIKKAEMEKQRKHAEEVSAASAALKDGDVIAIHSSSELDTKLKAASSLSRLVVLYFTAAWCGPCRFIGPVCKSLAEKHRNVVFLKVDIDELNSVAYRWNVSSVPSFFFVRNGKEIDKVVGADKNGLERKVAQHGSS
notes: OsTDX, Oryza sativa TPR repeat-containing thioredoxin; full-length cDNA amplified from a rice leaf cDNA library and cloned into pGEX-2T; predicted MW ~35 kDa; also called rice Trx-like protein; recombinant OsTDX; source: E. coli BL21(DE3), purified (glutathione-agarose, GST cleaved by thrombin, FPLC SEC 650 column)
stoichiometry N: 2
